Data taken from the RNAGym collection of RNA variant scans (doi:10.1073/pnas.2313332121).

B1: TPR t1 (parent)
chain: GACCAAUCUGCCCUCAGAGCUCGAGAACAUCUUCGGAUGCAGAGGAGGCAGGCUUCGGUGGCGCGAUAGCGCCAACGUCCUCAACCUCCAAUGCAUCCCACCACAUGAUGAUGCCUGAAGAGCCUUGGUUUUUUG

Variants of: B1
Experiment: polymerase ribozyme fitness, log enrichment relative to wild type (log ratio); higher = more active; in vitro selection for triplet polymerase activity
Procedure, shortened: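 A heterodimeric triplet polymerase ribozyme had each of its subunits mutagenized by PCR into a library, which was transcribed. One round of in vitro selection, done in triplicate, annealed each library with a biotinylated primer, its partner subunit and triplets, then incubated it frozen at −7 °C before gel excision of extended constructs, streptavidin-bead capture and RT-PCR. Fitness is the logarithm of genotype enrichment relative to wild-type enrichment, based on Illumina sequencing of inputs and outputs and inverse-variance-weighted replicate averages. A base-2 logarithm is used, and genotypes were kept only with ≥10 input reads and ≥1 read per output.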

Row | Variant | polymerase ribozyme fitness (log ratio)
1 | G35C G61C U81G G117C | -5.32
2 | G35A C56A | -4.2
3 | G36A G60A C85U C124G | 0.468
4 | G36C C49U | -1.18
5 | G36A G93C | -1.47
6 | G35U G65U A121G | -5.82
7 | C34U U109C C114A | -6.96
8 | G36C A37G G60C A121U | 0.419
9 | G36A G47C C124U | -0.979
10 | C34G U87G U109A | -6.29
11 | G35U C80A | -6.8
12 | C34G C56A U106C | -6
13 | G35A U131C | -6.04
14 | C34G C53G C72A C104A | -4.72
15 | G36A C53U U126A U129G U133G | -4.06
16 | G35A A74U C101U | -4.34
17 | G36A C70A C114A | -5.75
18 | G35C C123G | -2.8
19 | G36A G45U G61C | -3.57
20 | C34U A37G C64U U78C G113U U125G | -5.79
21 | C34G G61C C99A U112G U116G | -6.27

Row | Variant | polymerase ribozyme fitness (log ratio)
22 | C34U A41U G63U U109A C115A | -5.59
23 | G35A U92G A121G U125A | -5.24
24 | G35C G69U C79G U130A | -4.92
25 | G35C G61A A121U U126A | -3.79
26 | G36C C40A A74C G93C | -2.45
27 | G35C C56U | -4.82
28 | G36A A111G | -3.41
29 | G35A C56A C123G G128C | -5.64
30 | G36A G61U U87C C123G | 0.936
31 | G36A G42U C88A G113U | -3.82
32 | C34G C53G G61C U116C | -7.12
33 | C34U U112C | -2.16
34 | C34U U112G | -3.89
35 | C34U C73U | -3.35
36 | C34U C73A | -4.32
37 | C34U C85U C102U | -3.64
38 | C34U G77A A103C G117U G127C U130A | -7.38
39 | G36A C62U | -0.332
40 | G36A C62A | -1.61
41 | G35U C72U | -4.43
42 | C34G G44A G71A A90G C101U A121U | -6.41

Row | Variant | polymerase ribozyme fitness (log ratio)
43 | C34U G61C C102U C124U | -4.34
44 | C34G G57C C72A A100C | -4.64
45 | G35C C115U A118U | -7.09
46 | G36A G61A G77A | -1.53
47 | C34U G63A A90G | -6.16
48 | G35A G58A U78A C104U | -4.33
49 | G35U A74G | -5.03
50 | C34G C53A | -5.71
51 | G36A G42A A43C C53U | -3.85
52 | C34U | -4.05
53 | G35U A119U A121C C124A | -4.47
54 | G35A G117U | -5.09
55 | G35A G117C | -6.51
56 | G35U U78A | -5.42
57 | G35A C53G C70A C104U G117U C124G U126G | -6.92
58 | G35U G117A | -5.15
59 | C34G G120U | -4.75
60 | G35C U106C | -4.83
61 | C34G G48A G52C A84U G120A | -6.12
62 | G36C C94U | -1.47
63 | G35U G61A C85A C114G U131G | -6.32

Row | Variant | polymerase ribozyme fitness (log ratio)
64 | C34G C72G U96C A103U C124A | -7.14
65 | C34U G47C A66C G71A G110C U129C | -6.98
66 | G36A U125G | -1.83
67 | G36A C73A | -1.1
68 | G36A C73U | -0.561
69 | C34U A90U | -4.66
70 | G35U U112C | -3.04
71 | C34U G52U | -5.84
72 | C34U A105G G120A | -5.77
73 | G35U C123G | -2.32
74 | G35A G52U | -3.5
75 | G36C A37U C82A U116G G120C | -3.26
76 | G35U U59A | -6.05
77 | C34G C49U | -6.27
78 | G35A U87G | -3.91
79 | G36A G63A U78C | -1.53
80 | C34G G47C C104A C124A | -5.21
81 | G35A U116C | -3.83
82 | G36A U55G U87A | -1.87
83 | G36C A50C U59A A118U G120A | -0.713
84 | G35U G48C A121C | -3.96
